Data as given in paper PMC12511343, “Structural insights into Cir-mediated killing by the antimicrobial protein Microcin V” (Communications Biology, 2025).

T1: 4-Met substituted E. coli Cir (colicin Ia receptor), the paper's wildtype (WT) Cir (E. coli, UniProt P17315 26-663, W338 mutated to methionine | L343 mutated to methionine | F589 mutated to …)
T1 construct: Cir (colicin Ia receptor, TonB-dependent transporter), E. coli, mature coding region of cirA with four residues changed to methionine (4-Met); No TEV cleavage of Cir is described; also called apo-Cir; His-tagged Cir; not shown: His10, N-terminal, kept
T1 sequence (looked up): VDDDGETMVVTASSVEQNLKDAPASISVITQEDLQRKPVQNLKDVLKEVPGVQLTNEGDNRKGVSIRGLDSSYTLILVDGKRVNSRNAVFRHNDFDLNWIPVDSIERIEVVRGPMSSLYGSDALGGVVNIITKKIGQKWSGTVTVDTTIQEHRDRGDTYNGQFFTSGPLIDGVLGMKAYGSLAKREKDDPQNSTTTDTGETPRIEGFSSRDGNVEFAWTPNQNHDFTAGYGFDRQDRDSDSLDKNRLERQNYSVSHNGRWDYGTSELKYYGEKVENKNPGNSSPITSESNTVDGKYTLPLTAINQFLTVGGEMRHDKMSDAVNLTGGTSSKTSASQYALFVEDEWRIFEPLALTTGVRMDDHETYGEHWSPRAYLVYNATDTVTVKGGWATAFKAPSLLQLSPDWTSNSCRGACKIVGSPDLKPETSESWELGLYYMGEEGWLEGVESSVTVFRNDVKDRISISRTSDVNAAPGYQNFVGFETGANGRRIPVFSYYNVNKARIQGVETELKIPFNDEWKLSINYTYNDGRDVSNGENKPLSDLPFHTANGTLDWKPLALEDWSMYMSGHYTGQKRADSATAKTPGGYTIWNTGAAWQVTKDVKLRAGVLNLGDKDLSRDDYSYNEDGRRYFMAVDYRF

T2: Cir TonB Box mutant M33C/V35P (in 4-Met Cir) (E. coli, UniProt P17315 26-663, W338 mutated to methionine | L343 mutated to methionine | F589 mutated to …)
T2 sequence: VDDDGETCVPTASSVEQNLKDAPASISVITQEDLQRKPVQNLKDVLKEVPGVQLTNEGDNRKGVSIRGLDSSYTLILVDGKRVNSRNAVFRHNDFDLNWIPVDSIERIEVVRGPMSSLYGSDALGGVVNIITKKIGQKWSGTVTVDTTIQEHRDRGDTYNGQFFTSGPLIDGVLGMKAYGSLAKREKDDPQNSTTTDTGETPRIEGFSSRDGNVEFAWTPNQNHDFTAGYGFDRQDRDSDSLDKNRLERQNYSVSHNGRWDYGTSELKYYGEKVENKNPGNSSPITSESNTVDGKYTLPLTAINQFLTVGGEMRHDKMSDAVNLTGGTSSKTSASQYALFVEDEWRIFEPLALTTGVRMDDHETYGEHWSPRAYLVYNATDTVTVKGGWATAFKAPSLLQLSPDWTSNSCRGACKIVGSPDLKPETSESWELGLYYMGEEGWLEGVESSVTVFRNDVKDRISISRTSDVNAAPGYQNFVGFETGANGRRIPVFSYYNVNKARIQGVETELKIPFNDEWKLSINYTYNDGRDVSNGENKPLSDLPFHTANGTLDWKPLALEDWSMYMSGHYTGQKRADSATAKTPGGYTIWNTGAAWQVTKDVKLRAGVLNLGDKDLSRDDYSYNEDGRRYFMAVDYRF

T3: Cir C435A (in 4-Met Cir) (E. coli, UniProt P17315 26-663, W338 mutated to methionine | L343 mutated to methionine | F589 mutated to …)
T3 sequence: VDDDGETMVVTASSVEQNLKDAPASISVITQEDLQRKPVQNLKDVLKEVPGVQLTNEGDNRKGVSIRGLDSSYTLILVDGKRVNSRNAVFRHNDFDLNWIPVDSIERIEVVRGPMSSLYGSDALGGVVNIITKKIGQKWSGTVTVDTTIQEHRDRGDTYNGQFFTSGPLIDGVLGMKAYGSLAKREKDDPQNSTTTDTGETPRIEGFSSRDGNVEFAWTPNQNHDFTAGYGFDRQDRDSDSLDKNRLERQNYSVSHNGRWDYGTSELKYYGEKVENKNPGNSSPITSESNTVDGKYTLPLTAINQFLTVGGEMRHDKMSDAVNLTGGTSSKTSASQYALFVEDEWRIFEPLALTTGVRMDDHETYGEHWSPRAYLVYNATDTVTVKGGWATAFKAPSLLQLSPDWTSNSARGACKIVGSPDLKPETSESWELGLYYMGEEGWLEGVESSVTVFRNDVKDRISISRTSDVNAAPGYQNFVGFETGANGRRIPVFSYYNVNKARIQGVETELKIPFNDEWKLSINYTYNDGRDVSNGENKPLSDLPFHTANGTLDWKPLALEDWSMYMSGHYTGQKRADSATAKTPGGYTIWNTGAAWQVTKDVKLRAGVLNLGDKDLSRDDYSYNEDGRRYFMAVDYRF

T4: Cir R436E/R490E (in 4-Met Cir) (E. coli, UniProt P17315 26-663, W338 mutated to methionine | L343 mutated to methionine | F589 mutated to …)
T4 sequence: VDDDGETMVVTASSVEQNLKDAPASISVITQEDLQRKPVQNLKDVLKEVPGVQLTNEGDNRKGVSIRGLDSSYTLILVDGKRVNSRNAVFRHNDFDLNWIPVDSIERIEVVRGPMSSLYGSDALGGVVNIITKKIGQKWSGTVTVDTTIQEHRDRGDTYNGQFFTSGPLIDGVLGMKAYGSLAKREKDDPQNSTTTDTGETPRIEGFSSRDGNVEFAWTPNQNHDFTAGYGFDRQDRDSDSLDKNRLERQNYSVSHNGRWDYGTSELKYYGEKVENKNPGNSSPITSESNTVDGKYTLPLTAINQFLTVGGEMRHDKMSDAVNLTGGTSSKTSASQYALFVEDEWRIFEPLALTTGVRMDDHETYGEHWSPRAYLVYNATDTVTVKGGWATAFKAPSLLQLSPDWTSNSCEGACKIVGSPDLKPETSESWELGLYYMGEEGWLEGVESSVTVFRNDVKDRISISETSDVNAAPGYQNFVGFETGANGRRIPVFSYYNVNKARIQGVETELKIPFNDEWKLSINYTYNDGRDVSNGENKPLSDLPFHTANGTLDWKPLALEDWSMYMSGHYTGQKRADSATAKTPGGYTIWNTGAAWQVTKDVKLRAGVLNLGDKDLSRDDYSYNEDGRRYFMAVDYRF


Legend:
[1] = target: T1, 4-Met substituted E. coli Cir (colicin …); test: BLI; biotinylated MccV (100 nM) on streptavidin sensors, WT Cir 5 uM to 78 nM in PBS-T; steady state equilibrium, 1:1 binding model; incomplete equilibrium during the association phase; conditions: both partners purified
[2] = target: T2, Cir TonB Box mutant M33C/V35P (in 4-Met …); test: BLI
[3] = target: T1, 4-Met substituted E. coli Cir (colicin …); test: BLI; biotinylated MccV (100 nM) loaded on streptavidin SA-XT sensors, Cir in twofold dilutions 5 uM to 78 nM in PBS-T; 300 s association, 240 s dissociation; first 30 s of association and dissociation fit to a 1:1 global model; conditions: both partners purified
[4] = target: T1, 4-Met substituted E. coli Cir (colicin …); test: AUC; sedimentation velocity, NAPol-solubilised Cir and its mixtures with MccV in phosphate-buffered saline, 50,000 rpm, 20 C; single-site model; conditions: both partners purified
[5] = target: T1, 4-Met substituted E. coli Cir (colicin …); test: BLI + AUC; stoichiometry reported from the concurrence of BLI (1:1 model) and SV-AUC (single-site model); conditions: both partners purified
Cir C435A (in 4-Met Cir) = target: T3, Cir C435A (in 4-Met Cir); test: BLI
[6] = target: T4, Cir R436E/R490E (in 4-Met Cir); test: BLI
[7] = target: D85A and D85R (MccV mutants, as a group); test: BLI; biotinylated MccV (100 nM) loaded on streptavidin SA-XT sensors, Cir in twofold dilutions 5 uM to 78 nM in PBS-T; 300 s association, 240 s dissociation; first 30 s of association and dissociation fit to a 1:1 global model

Row | Binder | Kd [1] | Kd [2] | Kd [3] | Kd [4] | stoichiometry N [5] | Kd (Cir C435A (in 4-Met Cir)) | Kd [6] | percent reduction in response shift relative to WT at 5 μM probe [7]
1 | Microcin V (MccV), mature, wildtype (natural protein, E. coli, UniProt P22522 16-103, looked up, biotinylated (EZ-Link Sulfo-NHS-LC kit) for BLI and ELISA; not labelled for cryo-EM and SV-AUC, Only residues 57-88 (mature numbering) were resolved in the map; also called WT MccV; Colicin V; source: E. coli BL21 (DE3), purified (HisTrap as His6-MBP fusion, TEV cleavage, second nickel column, flowthrough); not shown: His6, N-terminal, cleaved; MBP, N-terminal, cleaved) ASGRDIAMAIGTLSGQFVAGGIGAAAGGVAGGAIYDYASTHKPNPAMSPSGLGGTIKQKPEGIPSEAWNYAAGRLCNWSPNNLSDVCL | 1700 ± 1200 nM | 374 nM | 155 ± 30 nM | 600 ± 200 nM | 1 | 552 nM | 1580 nM | –
2 | 4-Met substituted E. coli Cir (colicin Ia receptor), the paper's wildtype (WT) Cir (receptor) VDDDGETMVVTASSVEQNLKDAPASISVITQEDLQRKPVQNLKDVLKEVPGVQLTNEGDNRKGVSIRGLDSSYTLILVDGKRVNSRNAVFRHNDFDLNWIPVDSIERIEVVRGPMSSLYGSDALGGVVNIITKKIGQKWSGTVTVDTTIQEHRDRGDTYNGQFFTSGPLIDGVLGMKAYGSLAKREKDDPQNSTTTDTGETPRIEGFSSRDGNVEFAWTPNQNHDFTAGYGFDRQDRDSDSLDKNRLERQNYSVSHNGRWDYGTSELKYYGEKVENKNPGNSSPITSESNTVDGKYTLPLTAINQFLTVGGEMRHDKMSDAVNLTGGTSSKTSASQYALFVEDEWRIFEPLALTTGVRMDDHETYGEHWSPRAYLVYNATDTVTVKGGWATAFKAPSLLQLSPDWTSNSCRGACKIVGSPDLKPETSESWELGLYYMGEEGWLEGVESSVTVFRNDVKDRISISRTSDVNAAPGYQNFVGFETGANGRRIPVFSYYNVNKARIQGVETELKIPFNDEWKLSINYTYNDGRDVSNGENKPLSDLPFHTANGTLDWKPLALEDWSMYMSGHYTGQKRADSATAKTPGGYTIWNTGAAWQVTKDVKLRAGVLNLGDKDLSRDDYSYNEDGRRYFMAVDYRF | – | – | – | – | – | – | – | 40 to 45%
